Laboratory results reported in patent US20210395718A1, “NOVEL KETOSE 3-EPIMERASE” (NATIONAL UNIVERSITY CORPORATION KAGAWA UNIVERSITY, priority 2018, published 2021).

Legend:
[1] = system: ketose 3-epimerase (present enzyme, purified enzyme of wild strain); assay: Substrate specificity of ketose 3-epimerase using 8 kinds of ketohexoses; assay type: biochemical, Arthrobacter histidinolovorans Y586-1 strain; conditions: each substrate 0.1 M, phosphate buffer pH 8.0, 70° C., 10 min; epimerization activity for D-allulose = 100
Procedure: The substrate specificity of the present enzyme after purification was investigated using 8 kinds of ketohexoses. […] After a reaction at 70° C. for 10 minutes, the reaction mixture was analyzed by HPLC to measure a ketose produced by epimerization of each sugar.
Supposing that the epimerization activity for D-allulose is 100, the activity for each ketose is shown as a relative activity.

[2] = Ketose 3-epimerase activity ratio (T70/T50) at reaction temperature of 70° C. to 50° C.; assay type: biochemical; conditions: crude recombinant enzyme; ratio of activity at 70° C. to activity at 50° C., 10 min reaction
Method in brief: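 Crude recombinant enzyme activity measured at 70° C. and at 50° C. in 10-minute reactions under the optimum-temperature assay conditions. Value is the ratio of the two activities (T70/T50).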

[3] = Thermal stability: residual activity after incubation at 60° C. for one hour; assay type: biochemical; conditions: crude recombinant enzyme; after incubation at 60° C. for 1 hour
Method in brief: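 Crude recombinant enzyme held 1 h at 60 °C in 50 mM tris-HCl pH 7.5 with 2 mM MgCl2, chilled 10 min on ice, then residual activity measured by the standard method. Expressed relative to activity at 60 °C under the 10-min optimum-temperature reaction conditions, set as 100.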

| Molecule | Relative activity (%) [1] | T70/T50 [2] | Residual activity (%) [3] [%] |
| --- | --- | --- | --- |
| O=C(CO)[C@H](O)[C@@H](O)[C@H](O)CO [D-sorbose] | trace | – | – |
| O=C(CO)[C@@H](O)[C@H](O)[C@H](O)CO [D-fructose] | 43.4% | – | – |
| O=C(CO)[C@H](O)[C@@H](O)[C@@H](O)CO [L-fructose] | trace | – | – |
| O=C(CO)[C@@H](O)[C@@H](O)[C@@H](O)CO [L-allulose] | 27.1% | – | – |
| O=C(CO)[C@@H](O)[C@@H](O)[C@H](O)CO [D-tagatose] | 72.2% | – | – |
| O=C(CO)[C@H](O)[C@H](O)[C@@H](O)CO [L-tagatose] | 59.2% | – | – |
| O=C(CO)[C@H](O)[C@H](O)[C@H](O)CO [D-allulose] | 100.0% | – | – |
| O=C(CO)[C@@H](O)[C@H](O)[C@@H](O)CO [L-sorbose] | trace | – | – |
| Ketose 3-epimerase mutant 1: amino acid-substituted mutant of SEQ ID NO: 1 (protein, Arthrobacter histidinolovorans) MKIGCHGLVWTGRFDAEGIRYSVQKTKEAGFDLIEFPLMDPFSFDVATAKSALAEHGLSVSASLGLSEATDVSSEDPAIVKAGEELLNRALDVLAELGATEFCGVIYSAMKKYMEPATEQGLSNSKAAIGRVVDRAAGLGINVSLEVVNRYETNVLNTGRQALSYLSDVKRPNLGVHLDTYHMNIEESDMFSPVLDTAEVLKYVHIGESHRGYLGTGNVDFDNFFKALGRIGYDGPVVFESFSSAVVAPDLSRMLGIWRNLWADNEELGAHANAFIRDKLTAIKTIELH | – | 2.37 | 74.1 |
| Ketose 3-epimerase mutant 5: amino acid-substituted mutant of SEQ ID NO: 1 (protein, Arthrobacter histidinolovorans) MKIGCHGLVWTGRFDAEGIRYSVQKTKEAGFDLIEFPLMDPFSFDVATAKSALAEHGLSVSASLGLSEATDVSSEDPAIVKAGEELLNRALDVLAELGATDFCGVIYSAMKKYMEPATEQGLSNSKAAIGRVVDRAAGLGINVSLEVVNRYETNVLNTGRQALSYLSDVKRPNLGVHLDTYHMNIEESDMFSPVLDTAEVLKYVHIGESHRGYLGTGSVDFDNFFKALGRIGYDGPVVFESFSSAVVAPDLSRMLGIWRNLWADNEELGAHANAFIRDKLTAIKTIELH | – | 2.07 | 85.1 |
| Ketose 3-epimerase mutant 4: amino acid-substituted mutant of SEQ ID NO: 1 (protein, Arthrobacter histidinolovorans) MKIGCHGLVWTGRFDAEGIRYSVQKTKEAGFDLIEFPLMDPFSFDVATAKSALAEHGLSVSASLGLSEATDVSSEDPAIVKAGEELLNRALDVLAELGATDFCGVIYSAMKKYMEPATEQGLSNSKAAVGRVVDRAAGLGINVSLEVVNRYETNVLNTGRQALSYLSDVKRPNLGVHLDTYHMNIEESDMFSPVLDTAEVLKYVHIGESHRGYLGTGNVDFDNFFKALGRIGYDGPVVFESFSSAVVAPDLSRMLGIWRNLWADNEELGAHANAFIRDKLTAIKTIELH | – | 2.08 | 123.2 |
| Ketose 3-epimerase mutant 6: amino acid-substituted mutant of SEQ ID NO: 1 (protein, Arthrobacter histidinolovorans) MKIGCHGLVWTGRFDAEGIRYSVQKTKEAGFDLIEFPLMDPFSFDVATAKSALAEHGLTASASLGLSEATDVSSEDPAIVKAGEELLNRALDVLAELGATDFCGVIYSAMKKYMEPATEQGLSNSKAAVGRVVDRAAGLGINVSLEVVNRYETNVLNTGRQALSYLSDVKRPNLGVHLDTYHMNIEESDMFSPVLDTAEALKYVHIGESHRGYLGTGNVDFDNFFKALGRIGYDGPVVFESFSSAVVAPDLSRMLGIWRNLWADNEELGAHANAFIRDKLTAIKTIELH | – | 2.05 | 101.2 |
| Ketose 3-epimerase mutant 2: amino acid-substituted mutant of SEQ ID NO: 1 (protein, Arthrobacter histidinolovorans) MKIGCHGLVWTGRFDAEGIRYSVQKTKEAGFDLIEFPLMDPFSFDVATAKSALAEHGLTASASLGLSEATDVSSEDPAIVKAGEELLNRALDVLAELGATDFCGVIYSAMKKYMEPATEQGLSNSKAAVGRVVDRAAGLGINVSLEVVNRYETNVLNTGRQALSYLSDVKRPNLGVHLDTYHMNIEESDMFSPVLDTAEVLKYVHIGESHRGYLGTGNVDFDNFFKALGRIGYDGPVVFESFSSAVVAPDLSRMLGIWRNLWADNEELGAHANAFIRDKLTAIKTIELH | – | 2.31 | 83.3 |
| Ketose 3-epimerase mutant 3: amino acid-substituted mutant of SEQ ID NO: 1 (protein, Arthrobacter histidinolovorans) MKIGCHGLVWTGRFDAEGIRYSVQKTKEAGFDLIEFPLMDPFSFDVATAKSALAEHGLTASASLGLSEATDVSSEDPAIVKAGEELLNRALDVLAELGATEFCGVIYSAMKKYMEPATEQGLSNSKAAIGRVVDRAAGLGINVSLEVVNRYETNVLNTGRQALSYLSDVKRPNLGVHLDTYHMNIEESDMFSPVLDTAEVLKYVHIGESHRGYLGTGSVDFDNFFKALGRIGYDGPVVFESFSSAVVAPDLSRMLGIWRNLWADNEELGAHANAFIRDKLTAIKTIELH | – | 2.11 | 94.5 |
